Experimental data as given in patent US20230133775A1 (University of California, published 2023).

Molecular target: T1, Leucine-rich repeat-containing protein 15 (LRRC15) on LRRC15-expressing cells (UniProt Q8TF66 22-581, limits assumed)
T1 construct: whole, on cells; also called leucine-rich repeat containing 15
T1 sequence (looked up): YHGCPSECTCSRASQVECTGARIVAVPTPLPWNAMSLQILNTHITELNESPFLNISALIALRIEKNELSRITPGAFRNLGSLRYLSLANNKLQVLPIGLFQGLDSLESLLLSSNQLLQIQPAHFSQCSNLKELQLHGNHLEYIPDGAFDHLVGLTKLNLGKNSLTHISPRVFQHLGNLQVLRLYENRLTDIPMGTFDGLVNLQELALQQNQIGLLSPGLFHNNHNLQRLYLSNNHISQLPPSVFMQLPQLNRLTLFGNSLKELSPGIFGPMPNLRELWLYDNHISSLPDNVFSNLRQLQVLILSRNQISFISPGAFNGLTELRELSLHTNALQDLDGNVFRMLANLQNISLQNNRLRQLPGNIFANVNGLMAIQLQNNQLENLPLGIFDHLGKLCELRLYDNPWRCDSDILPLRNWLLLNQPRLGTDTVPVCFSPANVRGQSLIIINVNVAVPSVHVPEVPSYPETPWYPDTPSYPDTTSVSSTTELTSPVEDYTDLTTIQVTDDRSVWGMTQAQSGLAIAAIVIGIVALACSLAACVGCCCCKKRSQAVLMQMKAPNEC
Test: LigandTracer, radiolabeled antibody on live target cells
Procedure: DUNP 19 was developed by humanization of a hybridoma mAb generated from immunizing mice with stably transfected LRRC15-expressing 3T3 cells. […] Liquid chromatography-mass spectrometry (LC-MS) analysis of DUNP19 incubated with LRRC15-expressing cell lines confirmed molecular binding specificity. […] LigandTracer (Ridgeview Instruments) was utilized to assess binding interaction between live cells and Lutetium-177 labeled DUNP19 ([¹⁷⁷Lu]DUNP19). […] Internalization rate was studied by quantifying emitted fluorescence over time from SAOS2 cells incubated with pH-responsive dye-labeled DUNP19. Identification of colocalization of Alexa-488 labeled DUNP19 with intracellular markers (DAPI and LAMP1) in SAOS2 cells over time was applied to further confirm time of internalization.

B1: Lutetium-177 labeled DUNP19 ([177Lu]DUNP19) (antibody, V domains shown)
VH: QVQLVQSGAEVKKPGASVKVSCKASGYTFTDYYIHWVRQAPGQGLEWMGWINPNSDGTNYAQNFLGRVTMTRDTSISTAYMELSRLRSDDSAVYHCVREGRYSTSPFDYWGQGTLVTVSS
VL: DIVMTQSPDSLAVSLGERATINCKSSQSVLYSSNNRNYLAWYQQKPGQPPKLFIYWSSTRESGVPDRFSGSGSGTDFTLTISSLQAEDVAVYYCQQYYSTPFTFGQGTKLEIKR
notes: also called 177Lu-DOTA-DUNP19
  Kd: 329 pM
